Experimental data reported in PMC9634612, “Rapid and efficient room-temperature serial synchrotron crystallography using the CFEL TapeDrive” (IUCrJ, 2022).

Target: the molecule itself
Experiment: crystal structure; room-temperature (293 K) serial synchrotron crystallography with the CFEL TapeDrive, 2.3 Å, space group I222, one monomer in the asymmetric unit, tetramer generated by symmetry; UOX with 5PMUA bound

B1: Aspergillus flavus urate oxidase (enzyme)
chain: MSAVKAARYGKDNVRVYKVHKDEKTGVQTVYEMTVCVLLEGEIETSYTKADNSVIVATDSIKNTIYITAKQNPVTPPELFGSILGTHFIEKYNHIHAAHVNIVCHRWTRMDIDGKPHPHSFIRDSEEKRNVQVDVVEGKGIDIKSSLSGLTVLKSTNSQFWGFLRDEYTTLKETWDRILSTDVDATWQWKNFSGLQEVRSHVPKFDATWATAREVTLKTFAEDNSASVQATMYKMAEQILARQQLIETVEYSLPNKHYFEIDLSWHKGLQNTGKNAEVFAPQSDPNGLIKCTVGRSSLKSKL
notes: Urate oxidase of Aspergillus flavus, untagged, from a codon-optimized synthetic cDNA in pET24b; One monomer in the asymmetric unit; the tetramer is generated by crystal symmetry; also called UOX; cofactor-free A. flavus urate oxidase
For B1, the “stoichiometry N” value was 4.
